Assay results: patent US20150024066A1, “METHODS FOR […] TREATING EXCESS WEIGHT USING OXYNTOMODULIN” (IMPERIAL INNOVATIONS, published 2015)

Tests used:
GLP-1 receptor [1] = target: T1, GLP-1 receptor (rat, UniProt P32301); test: competition of [^125I]GLP-1 binding to rat hypothalamic membranes; reference GLP-1
GLP-1 receptor [2] = target: T1, GLP-1 receptor; test: competition of [^125I]GLP-1 binding to rat hypothalamic membranes, unlabeled peptide varied
Experimental: Membranes were incubated at room temperature for 90 min. Bound and free radioactivity were separated by centrifugation (2 min, 4° C.). Pelleted membranes were washed with assay buffer (0.5 ml, ice-cold), and the membranes were centrifuged as described above. The supernatant was removed, and the radioactivity in the pellet was counted using a γ-counter. […] All curves were constructed with points in triplicate. IC₅₀ values were calculated using the Prism 3 program (GraphPad Software, Inc., San Diego, Calif.).

HSQGTFTSDYSKYLDSRRAQDFVQWLMNTKRNKNNIA [oxyntomodulin (OXM)]
affinity relative to GLP-1 (GLP-1 receptor [1]): ~2 orders of magnitude weaker | IC50 (GLP-1 receptor [2]): 8.2 nM
